Read-outs that look alike come from different tables or passages of the source.
Columns and labels:
[1] = rat, in vivo; cited from earlier work
[2] = format: biochemical; details: for ability to degrade ochratoxin A: enzyme screen, 20 h
Procedure: Activity was expressed in % OT-α (product of OTA) area: the area corresponding to the product divided by the total area (peak area of OTA plus OT-α).
The buffers employed in the assay were: 50 mM sodium acetate buffer (pH 4, 4.5, 5 and 5.5); 50 mM MES buffer (pH 6, 6.5 and 7); 0.2M Mops-NaOH) pH7.0), 50 mM Tris-HCl buffer (pH 7.5, 8 and 8.5). Ochratoxin A (OTA) solution (1 mg/mL) was made of 5 mg ochratoxin A (Sigma, ref. 32937) dissolved in ethanol/water (60/40) and stored at −20° C. Screening assays were performed with […] OTA solution and different enzyme concentrations (for example, 0.1-5 mg/ml) in a final volume of 300 μL. Enzymatic reactions were done at 37° C. for 20 h±1 h under constant agitation. Samples were filtered using syringe filter 0.20 μm for HPLC analysis. The HPLC apparatus consisted of a Dionex P580 pump and Dionex ASI-100 autosampler connected to a Dionex RF-2000 fluorescence detector (λex=333 nm; λem=460 nm) and a Dionex UVD340 U UV detector at 257 nm. Elution was through a nucleosil 100-5 C18 column (250×4.6 mm, 5 μm particle size; Chrompack) with water/acetonitrile/acetic acid (100:100:1, v/v/v) at a 0.6 mL/min flow-rate. The column was kept at 30° C. and was connected to guard column (C18, 1 mm, Optimize technologies). The OTA and its degradation products were monitored both by uv at 235 nm and fluorescence (excitation at 278 nm emission at 440 nm).
Thirty enzymes including various lipases, proteases and amdiases were investigated for their ability to degrade ochratoxin A (Table 1). […] To facilitate the comparison of these three enzymes, the protein concentration of PEPAd was determined and enzyme solutions of carboxypeptidase A and Amano™ lipase A were prepared at the same concentration (1 mg/ml). A kinetic of the degradation was carried out (FIG. 1). […] Amano™ lipase A product was a mixture of different enzymes with the dominant activity being lipase. […] Other proteases, lipases and amidases listed in Table 1 were not able to break OTA down (data not shown).

[3] = activity of three fungal amidases on ochratoxin A (intracellular cell-free fraction); format: biochemical; details: for Activity on ochratoxin A expressed as ochratoxin A peak area: remaining OTA, 20 μl intracellular cell-free fraction, pH7, 23° C., 17 h
Procedure: The reaction mixture using OTA as substrate consisted of 75 μl phosphate (67 mM, pH7), 5 μl OTA (2.4 μg/ml) and 20 μl intracellular cell-free fraction. The reaction was performed at 23° C. for 17 h and stopped by adding 0.15 ml acetonitrile and analyzed on HPLC with an injection volume of 5 μl.

[4] = Abrunhosa et al., Toxins 2010; cited from earlier work

| Molecule | ability to degrade ochratoxin A ([2]; 37° C.) | Activity on ochratoxin A expressed as ochratoxin A peak area [3] | further results |
| --- | --- | --- | --- |
| C[C@@H]1Cc2c(Cl)cc(C(=O)O)c(O)c2C(=O)O1 [ochratoxin α] | – | – | elimination half-time in the body [1]: 9.6 h |
| C[C@@H]1Cc2c(Cl)cc(C(=O)N[C@@H](Cc3ccccc3)C(=O)O)c(O)c2C(=O)O1 [OTA, ochratoxin A] | – | – | elimination half-time in the body [1]: 103 h |
| porcine elastase: serine protease elastase from porcine pancreas (Sigma E0258) [reference compound] | showed certain activity with OTA | – | – |
| amidase from Metarhizium anisopliae: putative amidohydrolase from Metarhizium anisopliae (EFZ00058) expressed intracellularly in Trichoderma reesei (protein, listed as Metarhizium anisopliae) MTRRVIPHSESAESVDDAQHVSGRIYSTGFGIAVRTGQPQSQDDDAETGVKKVFYTIVMTKLLIPGDGEPIKDAALVVKNKIIDWVGRQADLPNEYTEKPHKLHNVPYLMPGLWDCHVHFAGSNGEREAEEGSTGLSFLADHPTTAGARLARGCWDAIQRGYTSMRDLAGFGCEISKAIEDGVIIGPNIYSAGACLSQLAGHGDVFALPAGDALLNLGLASVKAGQFGAGMSCLVDGVDECRRGVRLQIRRGAKCIKVMASGGVLSRDDNPLYAQFSREELDTIVSEAKRMERTVAAHVHGKPGILQAVEAGVTSVEHVSFADQECIDLIKDRGTIFVGTRTIVNLLLDSKGEGMPKKMWEKAKLVGTHSLEGYKKAIKAGCTIALGTDTEPGFNMAIELQYAVEAGMSSLEAIKAATANGPLTVAGQAPLTGQLKAGYEADMIGVCDNPVEDVKVLQKKSNIGWVWKGGKLFKGPGIGPWGEEL | – | 0.96 | activity in degrading ochratoxin A (in words) [3]: showed activity in degrading ochratoxin A |
| amidase from Aspergillus oryzae: hypothetical protein from Aspergillus oryzae (XP_001826758) expressed intracellularly in Aspergillus niger (protein, listed as Aspergillus oryzae) MHRMLTDDRLYRVDADLLIPGKGDPIPHGAVVWQCKTIRYAGPRSGVPTEFQGATTTHVPVVMPGMWDCHIHFLGATAATMNAIVDTPQALAGARSVPDLHATVMAGFTSVREVGGYGCDLAKAVGEGRIPGPNIYSSHSAISMTAGHGDVHGVHRDSLLDLCAHGLPLTIADGVPECLLAVRKQLRRGAKVIKVCASGGVVSAIDDPQHQEFSFEELKAIVDEAARARRVVAAHCHGKAGIMNALRAGCRTIEHGSFLDEEAVGLMKEKGAILVATRSVIESGLAMKDLFTPSSYQKLLAVADAHRKAYQLAISRGVTIALGTDQFISSDNPMIGYGRNGHEVRYAVDAGLTPLAAIEAATANGPLTLGYQAPQSGQLKEGYDADIIAVRENPLENVAVLSNSKNVTHVWRGGMLIKS | – | 8.57 | – |
| carboxypeptidase A: Carboxypeptidase A from bovine pancreas (Sigma) (protein, listed as Bos taurus) MQGLLILSVLLGAALGKEDFVGHQVLRITAADEAEVQTVKELEDLEHLQLDFWRGPGQPGSPIDVRVPFPSLQAVKVFLEAHGIRYRIMIEDVQSLLDEEQEQMFASQSRARSTNTFNYATYHTLDEIYDFMDLLVAEHPQLVSKLQIGRSYEGRPIYVLKFSTGGSNRPAIWIDLGIHSREWITQATGVWFAKKFTEDYGQDPSFTAILDSMDIFLEIVTNPDGFAFTHSQNRLWRKTRSVTSSSLCVGVDANRNWDAGFGKAGASSSPCSETYHGKYANSEVEVKSIVDFVKDHGNFKAFLSIHSYSQLLLYPYGYTTQSIPDKTELNQVAKSAVEALKSLYGTSYKYGSIITTIYQASGGSIDWSYNQGIKYSFTFELRDTGRYGFLLPASQIIPTAQETWLGVLTIMEHTLNNLY | able to breakdown OTA | – | conversion of OTA ([2]; after 7 h reaction at 37° C., enzyme 1 mg/ml): full conversion of OTA was obtained; ochratoxin degrading activity [4]: low ochratoxin degradding activity |
| PEPAd: a Danisco aspartic acid protease cloned from A. niger (protein, Aspergillus niger) MHLPQRLVTAACLCASATAFIPYTIKLDTSDDISARDSLARRFLPVPNPSDALADDSTSSASDESLSLNIKRIPVRRDNDFKIVVAETPSWSNTAALDQDGSDISYISVVNIGSDEKSMYMLLDTGGSDTWVFGSNCTSTPCTMHNTFGSDDSSTLEMTSEEWSVGYGTGSVSGLLGKDKLTIANVTVRMTFGLASNASDNFESYPMDGILGLGRTNDSSYDNPTFMDAVAESNVFKSNIVGFALSRSPAKDGTVSFGTTDKDKYTGDITYTDTVGSDSYWRIPVDDVYVGGTSCDFSNKSAIIDTGTSYAMLPSSDSKTLHSLIPGAKSSGSYHIIPCNTTTKLQVAFSGVNYTISPKDYVGATSGSGCVSNIISYDLFGDDIWLLGDTFLKNVYAVFDYDELRVGFAERSSNTTSASNSTSSGTSSTSGSTTTGSSTTTTSSASSSSSSDAESGSSMTIPAPQYFFSALAIASFMLWL | showed an OTA converting activity although this was less efficient | – | conversion of OTA ([2]; after 1 day reaction, 37° C., same protein concentration (1 mg/ml)): full conversion was not reached |
| amidase from Glomerella graminicola: putative amidohydrolase from Glomerella graminicola (EFQ25792) expressed intracellularly in Trichoderma reesei (protein, listed as Glomerella graminicola) MGGSFRPNYADGPEPPFSPTKKTTLVIIKTSLLIPGDGEPLKDGALVISSKVIAWVGPQSSLPSEYADSPHRSYTVPYLMPGLWDCHAHFGGESPNDDGGNDPYQVFITEHPAASGARLTRGCWLALQRGYTSLRDVAGLGCEVSRAIEDGSIVGPNVYSSGSGLSQLAGHGDIFSLPAGDVLLNLGVSQITPGHFGTHATMIVDGVDECRRAVRLQIRRGAKCIKVMASGGVMSRDDNPNYAQFSAAELETIVEEATRQNRVVAAHVHGKAGILAAINAGVTTLEHASFADRECIDLIKEKGIVYIATRIVVHLLLSTGGKGLPPTVWEKAKLVAKNHMTAYKMAIESGVQIALGTDTGPGYNMATELECAVEAGMSNLEAIKAATANGPLSVGGQAPKTGQLKVGYEADVIGLLQNPVEDVKVLQKVDNVGWVWKGGKLFKGPGVGPWGEEPGVWEDITGVSRLRCTTGY | – | 0.68 | – |
| yeast carboxypeptidase Y: Carboxypeptidase Y from baker's yeast (Saccharomyces cerevisiae) (protein, listed as Saccharomyces cerevisiae) MKAFTSLLCGLGLSTTLAKAISLQRPLGLDKDVLLQAAEKFGLNLDLDHLLKELDSNVLDAWAQIEHLYPNQVMSLETSTKPKFPEAIKTKKDWDFVVKNDAIENYQLRVNKIKDPKILGIDPNVTQYTGYLDVEDEDKHFFFWTFESRNDPAKDPVILWLNGGPGCSSLTGLFFELGPSSIGPDLKPIGNPYSWNSNATVIFLDQPVNVGFSYSGSSGVSNTVAAGKDVYNFLELFFDQFPEYVNKGQDFHIAGESYAGHYIPVFASEILSHKDRNFNLTSVLIGNGLTDPLTQYNYYEPMACGEGGEPSVLPSEECSAMEDSLERCLGLIESCYDSQSVWSCVPATIYCNNAQLAPYQRTGRNVYDIRKDCEGGNLCYPTLQDIDDYLNQDYVKEAVGAEVDHYESCNFDINRNFLFAGDWMKPYHTAVTDLLNQDLPILVYAGDKDFICNWLGNKAWTDVLPWKYDEEFASQKVRNWTASITDEVAGEVKSYKHFTYLRVFNGGHMVPFDVPENALSMVNEWIHGGFSL | showed certain activity with OTA | – | ochratoxin degrading activity [4]: low ochratoxin degradding activity |

From patent publication US9113649B2, “Food additive comprising an amidase for detoxifying ochratoxin” (DuPont Nutrition Biosciences ApS, priority 2010, dated 2015)
